The record followed here is publication PMC9891525.

Broadly, the Kd is the free concentration of one partner at which half of the binding sites on the other are occupied at equilibrium, for simple one-to-one binding. Lower therefore signals higher affinity.

In this experiment the target is SARS-CoV-2 Delta variant S1 protein (SARS-CoV-2). In words: SPR. (In SPR one partner is held on a chip, and binding of the other changes the refractive index at the surface.)

As for original monoclonal antibody REGN10987, the Kd was determined as 0.9 nM.
